What was measured:
[1] = tested on: hepatocyte microvilli in the Space of Disse; experiment: Electron immunomicroscopy of liver sections; type: binding, rat; conditions: MAb 2A10 and gold conjugate
Description: Rat or mouse liver tissue or hepatocyte subcellular fractions from Example 2 were fixed in PBS containing 1% glutaraldehyde (grade 1, Sigma, St. Louis, Mo.) and 4% paraformaldehyde (Kodak, Rochester, N.Y.), dehydrated in ethanol, and embedded in LR White (Polysciences, Warrington, Wash.). (Frevert et al., Infect. and Immun. 60:2349-2360, June 1992.) Normal human liver was embedded in Lowicryl K4M (Ted Pella, Redding, Calif.). Ultrathin sections were labelled by incubating them sequentially with 10-50 μg/ml CS27IVC, CSFZ (Cys), Falc-2, or Falc-1 for 30 min.; 15 μg/ml MAb 2A10 for 30 min.; protein A-gold 15 nm (PAG15, 1:30; Amersham, Arlington, Ill.) or goat anti-mouse IgG gold 10 nm (GAM10, 1:30; Amersham) for 30 min. Control specimens were incubated in the absence of CS and only with the gold conjugates. Photographs were taken with a Philips EM 301 electron microscope.
To identify the hepatocyte structures interacting with the CS, glutaraldehyde-fixed and LR White-embedded thin sections of rat liver were incubated with the recombinant CS polypeptide CS27IVC, mAb 2A10 and goat anti-mouse IgG-gold and analyzed by immunoelectron microscopy. Human liver tissue embedded in K4M was also labelled with CS27IVC followed by MAb 2A10 and protein A-gold.

[2] = tested on: rat liver sections; experiment: Staining of frozen tissue sections with recombinant CS polypeptides; type: binding; conditions: revealed with MAb 2A10, fluorescence; CS27IVC 50-5 μg/ml, Falciparum-2 25 μg/ml, Falciparum-1 up to 250 μg/ml
Description: The procedure was carried out essentially as described by Dukor P. et al., Proc. Natl. Acad. Sci. USA 67:991-997, 1970 and Imai Y. et al., J. Cell. Biol. 111:1225-1232, 1990. Rats were euthanized with CO2. Small pieces of the liver, spleen, heart, brain and lung were removed, snap frozen in liquid nitrogen, embedded in Tissue Tek O.C.T. (Miles, Inc., Naperville, Ill.), and cut into 5 μm sections. Sections were dried for 30 min., fixed for 10 min. in 4% paraformaldehyde, rinsed three times with phosphate-buffered saline (PBS), and either used immediately or stored at 4° C. in 1% BSA, 0.5% Tween, PBS (BSA/TPBS). After blocking with 100 mM glycine (pH 7.2) and with BSA/TPBS, the sections were sequentially incubated at 37° C. with recombinant proteins for 1 hr, 10 μg/ml MAb 2A10 for 45 min., and rat anti-mouse immunoglobulin conjugated to fluorescein isothiocyanate (Boehringer Mannheim, Indianapolis, Ind.) for 45 min. The slides were counterstained for 10 min. with 0.3% Evans blue, rinsed extensively in PBS, and finally observed under a fluorescence microscope. For peptide inhibition experiments, the sections were first incubated with the peptide at various concentrations in BSA/TPBS for 1 hour at 37° C., washed six times with BSA/TPBS, and then stained with 2.5 μg/ml CS recombinant protein as described above. In a few experiments, the tissues were fixed for 10 min. with methanol, acetone, or 4% paraformaldehyde containing 0.5% glutaraldehyde.
Frozen sections of various rat organs were incubated with recombinant CS27IVC polypeptide. […] The staining closely followed the sinusoidal spaces of the hepatic lobules, indicating CS binding to the hepatocyte membrane. Other areas of the liver sections and sections of other organs (spleen, lung, heart or brain) were not stained. Control sections (incubated with CS27IVC in the absence of antibody or vice versa) were not stained either.
To define the region of the CS that mediates the perisinusoidal staining various other recombinant constructs were also used in the frozen section assay.

[3] = Clearance studies of 125I-labeled proteins; type: in vivo, mouse; conditions: monomeric fraction of CS27IVC, or Falc-1; i.v., between 2 and 15 minutes
Description: Clearance Studies: Mice were anesthetized with ether, and injected with 10^5 cpm of ^125I-labeled CS27IVC or Falc-1 via the periorbital sinus. At two, five and fifteen minutes after injection, the mice were exsanguinated, the organs removed, rinsed in TBS, blotted dry on filter paper, and counted for radioactivity. To estimate the amounts of blood contaminating the various organs, we repeated the same procedure in mice injected with 100 μl (1.5×10^5 cpm) of ^51Cr-labeled RBC. The mean volumes of blood in the liver, spleen and kidney of the exsanguinated animals were 75, 24, and 35 μl respectively. In all other organs, the amount of blood was negligible, i.e., less than 15 μl. The percent of injected dose of CS which was retained in the various organs was calculated as described as follows: [formula]
Radiolabeled Falc-1 (FIG. 30B), and the aggregated (FIG. 30C) and monomeric (FIG. 30A) fractions of radiolabeled CS27IVC proteins were injected intravenously into the retroorbital sinuses of mice. The animals were sacrificed 2, 5 and 15 minutes later, and the amounts of CS in the blood and in various organs were measured. Additionally, the radioactivity associated with the various organs was calculated. […]

Row | Molecule | gold labelling of liver sections [1] | binding (staining) to frozen liver sections [2] | injected counts recovered in the blood and in various organs [3]
1 | Falciparum-2: fragment of P. falciparum CS protein with repeats and Region II+ (residues 43-391) (protein) AGTNLYNELEMNYYGKQENWYSLKKNSRSLGENDDGNNNNGDNGREGKDEDKRDGNNEDNEKLRKPKHKKLKQPGDGNPDPNANPNVDPNANPNVDPNANPNVDPNANPNANPNANPNANPNANPNANPNANPNANPNANPNANPNANPNANPNANPNANPNANPNVDPNANPNANPNANPNANPNANPNANPNANPNANPNANPNANPNANPNANPNANPNANPNANPNANPNANPNANPNANPNKNNQGNGQGHNMPNDPNRNVDENANANNAVKNNNNEEPSDKHIEQYLKKIKNSISTEWSPCSVTCGNGIQVRIKPGSANKPKDELDYENDIEKKICKMEKCSS | essentially the same results but with lower staining intensity | bound to the liver sections | –
2 | Falciparum-1: Same as Falciparum-2 minus most of Region II+ (P. falciparum residues 43-348) (protein) AGTNLYNELEMNYYGKQENWYSLKKNSRSLGENDDGNNNNGDNGREGKDEDKRDGNNEDNEKLRKPKHKKLKQPGDGNPDPNANPNVDPNANPNVDPNANPNVDPNANPNANPNANPNANPNANPNANPNANPNANPNANPNANPNANPNANPNANPNANPNANPNVDPNANPNANPNANPNANPNANPNANPNANPNANPNANPNANPNANPNANPNANPNANPNANPNANPNANPNANPNANPNKNNQGNGQGHNMPNDPNRNVDENANANNAVKNNNNEEPSDKHIEQYLKKIKNSISTEWSP | negative | did not bind | about 40%

Reference: patent US20030119733A1, “Compositions and methods for inhibiting hepatocyte invasion by malarial sporozoites” (New York University, priority 1992, published 2003)
